Laboratory results as given in patent publication US20130123471A1.

Tests used:
[1] = molecular target: anti-CEA humanized chimeric antibody; assay: direct ELISA: chimeric antibody (100 ng/ml) on coated CEA, detected with goat-anti-mouse IgG Fc-HRP (background level)
[2] = molecular target: human CEA antigen (human) (UniProt P06731); assay: competitive inhibition ELISA on coated CEA, 80 ng human IgG1 against 2.5 ng parent mouse antibody
[3] = molecular target: human CEA antigen (human) (UniProt P06731); assay: direct ELISA on coated CEA, 100 ng/ml, goat-anti-human IgG Fc-HRP secondary (background level)
[4] = molecular target: human CEA antigen (human) (UniProt P06731); assay: ELISA, CEA coating, sample 100 ng/ml, goat-anti-human IgG Fc-HRP (background level)
[5] = molecular target: human CEA antigen (human) (UniProt P06731); assay: direct ELISA on coated CEA, 100 ng/ml, goat-anti-mouse IgG Fc-HRP secondary (background level; this secondary does not detect human Ig)

Sequence of UniProt P06731 (P06731 35-685 limits assumed): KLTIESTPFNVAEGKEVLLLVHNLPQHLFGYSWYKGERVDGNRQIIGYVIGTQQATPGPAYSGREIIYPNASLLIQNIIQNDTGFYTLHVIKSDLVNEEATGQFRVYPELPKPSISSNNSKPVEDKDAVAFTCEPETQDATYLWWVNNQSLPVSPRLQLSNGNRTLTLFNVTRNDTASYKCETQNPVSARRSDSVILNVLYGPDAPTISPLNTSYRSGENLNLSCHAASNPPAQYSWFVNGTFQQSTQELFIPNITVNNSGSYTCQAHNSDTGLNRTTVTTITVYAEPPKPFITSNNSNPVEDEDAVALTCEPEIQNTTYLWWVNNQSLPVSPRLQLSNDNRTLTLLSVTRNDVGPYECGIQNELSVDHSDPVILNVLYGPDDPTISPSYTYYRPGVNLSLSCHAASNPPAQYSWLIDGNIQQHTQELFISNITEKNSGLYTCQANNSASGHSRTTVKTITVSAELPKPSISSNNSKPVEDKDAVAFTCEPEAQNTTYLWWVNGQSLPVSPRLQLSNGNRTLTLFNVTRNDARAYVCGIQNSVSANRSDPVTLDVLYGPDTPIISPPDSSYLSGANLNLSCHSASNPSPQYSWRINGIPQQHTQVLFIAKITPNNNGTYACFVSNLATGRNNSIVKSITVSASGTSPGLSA
Sequence of anti-CEA humanized chimeric antibody (VH, as listed by the source, chain 1 of 2): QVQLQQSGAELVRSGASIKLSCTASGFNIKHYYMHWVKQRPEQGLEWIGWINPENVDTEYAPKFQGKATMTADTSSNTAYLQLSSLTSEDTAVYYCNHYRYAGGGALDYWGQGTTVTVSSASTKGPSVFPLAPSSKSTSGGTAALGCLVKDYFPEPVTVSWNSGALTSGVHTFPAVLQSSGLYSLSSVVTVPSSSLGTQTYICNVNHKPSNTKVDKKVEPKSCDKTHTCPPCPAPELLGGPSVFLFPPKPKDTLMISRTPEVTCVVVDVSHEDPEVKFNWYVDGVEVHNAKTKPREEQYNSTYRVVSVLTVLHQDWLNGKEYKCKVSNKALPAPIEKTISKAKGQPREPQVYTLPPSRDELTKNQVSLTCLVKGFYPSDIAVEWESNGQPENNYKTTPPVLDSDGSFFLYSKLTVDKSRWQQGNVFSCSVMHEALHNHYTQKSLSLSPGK
Sequence of anti-CEA humanized chimeric antibody (VL, as listed by the source, chain 2 of 2): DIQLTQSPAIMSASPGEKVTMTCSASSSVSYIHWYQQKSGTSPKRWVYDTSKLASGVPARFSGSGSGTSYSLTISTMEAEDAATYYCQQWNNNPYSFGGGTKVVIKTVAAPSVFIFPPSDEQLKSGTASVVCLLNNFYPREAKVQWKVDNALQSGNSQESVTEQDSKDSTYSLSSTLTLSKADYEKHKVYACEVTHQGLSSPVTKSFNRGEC

Work on “goat-anti-mouse IgG Fc fragment-HRP (antibody)” yielded an OD490 [1] of 0.072 OD490.
irrelevant antibody human IgG1 gave an Inhibition rate (%) [2] of -12.8%, an OD490 [3] of 0.079 OD490 and an OD490 [4] of 0.072 OD490. For the same substance, the OD490 [5] was 0.077 OD490.
